The values that follow come from a protein production outcome set (Wang et al. 2014).

The data set in a line: label from the status in PepcDB records.
On to “MEETPKTTLPHKFLKNILMLDVLKVRIYPNKEQEISLAKSFGCSRFVWNFYLNKTNTQYEETGKGMTYCQMAKDLTQLKKLSDYEWLQEPTAAVLQQSLKNLESAFKNFFSKRAGFPKFKSKHSKQSIRFPESCSIKDSGLKLPKLGIVKVSLSKKINSKIKSVTVSKTSTGKYFAALLFEAKDLTNNKQGKISGIDLGLTSLITVFDGETCYKVDPIKPTRKYAKRLRIRQKALSRKVKGSNNRRKAIKVVAKVHEKISNTRQDFLHKLSRKLVDDNQIIVAENLCVKGLARTKLAKSIHDAGFGMLLNFISYKLEREGGKFVQVDRFFPSSKLCSCCGHKNNLLNLSIREWICPSCQTTHDRDENASRNLRTEGIRILETNTAGHAEIQACGETVRLVGTCAKKRVSEKQESPATLLCG”, for which the protein production entry is “failed”.

As for “MEEWPALQWSQGTPASGPALQALEEYAFVPRDDESRQGIRTDALLVIRDGRLLYERYAGATGPQTPHLAWSASKSLLAVLLGVAFGEGRFQLQDPAAKFYPPLEAHPDITLADLLHWASGLDWQEDYEYAPLNSSVVAMLYTRGHRDMAAFTVQQAASGPPGQVFRYSSGDSNLLAASLRGMVGEGQYADYPWRALFEPLGITQAVWERDAAGTFVASSYLYLTARDLARIGLLMQRDGRWRDRQLLPKAWVEFCRTPFRGYRANQDVAVAGGHWWLNREVDGAPRPWPDAPADTYAALGHWGQALYVLPAQRLVIVRYGDDRDGSYQHNELLKRVLAAFATPEQPLEHHHHHH”, the protein production result is “failed”.

As for “MEFGYIGLMVSVVLIGISVYGFLNSKNIVRIFLSSEILVNASILIVFSVSSLTNQVYLPIYFSLFAIGMALVEIVVAFAAIFLYYKNKGSLEVE”, the protein production result was “failed”.

“MEFNLRCSESMPDFSRVGMMDEDIPNVRGRGPSQPRGFLRSQIRAPCALMKGLSDIDQEITMAFIKALAVQHQKRSLERRKIRKKINRILRRVIAISRELHTLNSHPGDWIELGISEFDRIPDCMMPILELAGQGVQLFYKSRRVS”: the protein production result was “failed”.

For “MEGFSPPINTAQVDAKTKLDEKVDYSNLPCPVLYEELNREATMALKPELFEGFRLDYNKSLNQKFFLSHSILMGPTEVPNPTPSSEIIKIPTANYDFGAGFIDPKLYLIGRITTDGRLNARAKFDLTDNFSVKANALLTDEEDKSQGHLVIDYKGSDYRTQLQLGNNSVYAANYIQHVTPHLSLGGEAFWLGQQLMSGVGYAARYETDKTVASGQIASTGVAVMNYVHKVSEKLSFATDFIYNYLSRDVTASVGYDLITRQSRLRGKVDSNGVVAAYLEEQLPIGLRFLLSAEVDHVKKDYKFGFGVNAF”, the protein production entry is listed as “failed”.

For “MEGITSFENLPEELKREILLRMSPNSLVTCSRVSKKLASMIRTKSFKELYLSRSMRCPRVLFAANGTITPHVLFTSFQEKEKPLLSSGEQRIITSLQGEFLFSPPVRGLICLVERESARIVICNPGTTKFLALPIVEADETTRIITHLGYDEQKDVFKVLCTRTKPETPHLVLTVGSGKEPWREIVCKFPHTVIGAGVFYRGTLYYLAAFHSKSIIMTFDVRSETFMPITSPDGVDLNQGSWRLVNYSQQGGFALVNESRGFIYQSNGGDAYLETWVWNVDTRKWSMNSILIRKWKDYAQDNEDYDYRFRGTQGTYELVFAPIRVKEDGSLTVILYNTDTQAFRRSKVQMMGEGHEFRFVDTFLDHVDSTLLI”, the protein production result is given as “failed”.

With “MEGKTLIVSVLIMSLFMAQNQVDANICCPSIQARTFYNACLFAVGSPSSCIRNSSCLDISESTCPRGYTNDILENTGDAVTEYCKLGCVSSVCGALTILQNSDASEIVNGEVEKCTMACSTVCTKGSMNAVENA”, the protein production result was “failed”.

Regarding “MEGLAAFIIITLMIIIVPGPDFFVVMKNSITSGKGNGAMAALGITSGHVVYSLLAVFGIIFILANMYYVFVTIKILGAIYLIYLGIRSIISARQSMNFSTSQLKAQRITYLSSYRQGFFSTILNPKALLYYISILPQFLSTGEAVTSQIAILTAIVTTVILLWFIFCVYIFQYIKLLFTNRKIKAIFDYTVGAILIGLSLNLLLSKSS”, the protein production entry is “failed”.

Regarding “MEGNQAGSSLDSLIASFNKRIGELQELVIARNMYPASTIPDLSAIDTALSSMELQVQSIKDRLREETEAIPKAKKLIEASLKQQGKLQKMSIYAPSHFPDKATMLNSDLNRCLLQENAKQYEQHSTLSSLKFDEEAAVLPKEKKGRGSPPLWYITVEELNSLSSYMRGRLTLEKVNAAINDMASYAEANAHLIAASKQKLAENLWEKALKLRDIVTEQAVKGKHFFLETDMKGPSLKLDNTGKAILTVLRHLGRISETRIGQNRVIILMKPH”, the protein production result was “failed”.

As to “MEGNSDSMILVTVNPKTKKTTMTSLERDILVKLSGSKTNDQTGYDAKLNAAYAAGGAKMAIMTVQDMLDIKIDKYVQINMEGLVQLVDAVGGITVTNHFDFPISIEEHEPEFTASVEPGTHKINGEQALVYSRMRYDDPDGDYGRQKRQREVISKVLKKILALDSVSKYRKILSAVSKNMQTNIEISSSTIPKLLGYSDALKSIRTYQLKGEGTTIDGGSYQLVTSKELLKAQNRIKGQLGLKKSTAENLKTTASLYENFYGGDTSIYDSSSSASDYSSSGNYSGSSSDYGSSSSYGSNSSSGSSSDYSGQNSYNQGNYQQPAAGTGIGNLEHHHHHH”, the protein production entry is “not failed”.

With “MEGSTGFDGDATTFFAPDAVFGDRVRRFQEFLDTFTSYRDSVRSIQVYNSNNAANYNDDQDDADERDLLGDDDGDDLEKEKKAASSTSLNILPHRIIISLDDLREFDRSFWSGILVEPAYFIPPAEKALTDLADSMDDVPHPNASAVSSRHPWKLSFKGSFGAHALSPRTLTAQHLNKLVSVEGIVTKTSLVRPKLIRSVHYAAKTGRFHYRDYTDATTTLTTRIPTPAIYPTEDTEGNKLTTEYGYSTFIDHQRITVQEMPEMAPAGQLPRSIDVILDDDLVDKTKPGDRVNVVGVFKSLGAGGMNQSNSNTLIGFKTLILGNTVYPLHARSTGVAARQMLTDFDIRNINKLSKKKDIFDILSQSLAPSIYGHDHIKKAILLMLMGGVEKNLENGSHLRGDINILMVGDPSTAKSQLLRFVLNTASLAIATTGRGSSGVGLTAAVTTDRETGERRLEAGAMVLADRGVVCIDEFDKMTDVDRVAIHEVMEQQTVTIAKAGIHTTLNARCSVIAAANPVFGQYDVNRDPHQNIALPDSLLSRFDLLFVVTDDINEIRDRSISEHVLRTHRYLPPGYLEGEPVRERLNLSLAVGEDADINPEEHSNSGAGVENEGEDDEDHVFEKFNPLLQAGAKLAKNKGNYNGTEIPKLVTIPFLRKYVQYAKERVIPQLTQEAINVIVKNYTDLRNDDNTKKSPITARTLETLIRLATAHAKVRLSKTVNKVDAKVAANLLRFALLGEDIGNDIDEEESEYEEALSKRSPQKSPKKRQRVRQPASNSGSPIKSTPRRSTASSVNATPSSARRILRFQDDEQNAGEDDNDIMSPLPADEEAELQRRLQLGLRVSPRRREHLHAPEEGSSGPLTEVGTPRLPNVSSAGQDDEQQQSVISFDNVEPGTISTGRLSLISGIIARLMQTEIFEEESYPVASLFERINEELPEEEKFSAQEYLAGLKIMSDRNNLMVADDKVWRV”, the protein production result is on record as “failed”.

Take “MEGTLSFVSGFAPAVYRRELFRHRCVTTAPEARAWPRLGLLRANSGARLSRVDITPEIYKRLVSMAKRTEGNFSAVAGAILESYLTAATNRDLRAVIFDMDGVLCDSERLSRAAGVEYFRRYHGVWPTEKDFADFAGTGEAAFLSGVARRYSVKDFDVNKAKEGFFNIYVNEYVSALEPFEGVREFIQQIKTMGLKTALASSADAIKVHANLSAIGFERDMFDFVTRSDEIANKKPAPDIFLAAAEGLGVPPESCVVIEDAPAGVLAAKRARMRCVAVATSVSAQLLWDAGADIVRPAPQYIMLDDIVITDDADASAPASASQE”: the protein production entry was “failed”.

As for “MEGYSRNGEISPKLLDLMIPQERRNWFHDEKNSVFKTEEKKLELKLGPPGEEDDDESMIRHMKKEPKDKSILSLAGKYFSPSSTKTTSHKRTAPGPVVGWPPVRSFRKNLASGSSSKLGNDSTTSNGVTLKNQKCDAAAKTTEPKRQGGMFVKINMYGVPIGRKVDLSAHNSYEQLSFTVDKLFRGLLAAQRDFPSSIEDEKPITGLLDGNGEYTLTYEDNEGDKMLVGDVPWQMFVSSVKRLRVIKTSEISSALTYGNGKQEKMRR”, the protein production entry was “failed”.

Consider “MEHSSGTKLLLTLSLFFCLISGAEAADSHALDSGDVNLSELKAFDLLCKCETWGIVNTVSLSSTGNYLVAGGFDRNVSLFDSRGTQLWNYKTEDIVYTVSISSDGSRIVAGSNDKKVYFFNREGDLLWSHKTGGNINSVAVSSNGLYVAAGGEDGKVYFMNSAGKLLWSFDSEAAVRSIAISRDGTYVAVGNANNYVYLFDSEGKTIWNRKTGSLINCVSMTPYAYYVAAGGSNYNVYLFDRKGEFSWMNNPGYWVSSVSLTTNGAYLAAGSFDDMIYLFNRTGGKIWDYKAKDDVYAVEISADSSFIAAGSWDDTLYVLNMDGEELWNYNCGGNINSLDVSRDSTTIAVGSDAGAVYLFERNPTAFALLLGDESFLPEETTKETDTSLAEKTIKPIEEETAVTGGVENKVEDAPATSSSVSGNPKTGENPGSEELPTEESSLKLLEKFDSIKFPAALLLGALAGTVFFLKRRLVKYHEKNDENLEDLEEKDIRE”, for which the protein production entry was “failed”.

As for “MEIAPSTSRFKLYDQFELLEFPDKYVVKPIESPEEGFSVNRRDGNIKPLDENASSGSPTRVSTIYGVGGTIRLLAGTYLLVITSREEVGNFLGLPIFRVTAMKFLPCNEALRFATAQEKKDETYFRTLLQALETTPGLYFSYETDLTLNLQRRCKLAEGWNRKPMWKQADPRYVWNWHLLEDLIECKLDGFIIPILQGSYQVAELKLKNSPAVVSIMSRRCTRRLGTRMWRRGANLEGDAANFVESEQIVEINGFKFSLLQVRGSIPLLWEQIVDLSYKPRLKINKHEETPKVVQRHFHDLCQRYGEIMAVDLTDQHGDEGALSKAYATEMEKLPDVRYVSFDFHQVCGTTNFDNLGVLYEQIGDEFEKQGYFLVDADENILEEQKGVIRSNCIDCLDRTNVTQSFMGQKSLNLQLQRIGVCDSTECISTFEDDYTKFRTIWAEQGDEVSLQYAGTYALKGDLVRYGKQTMTGAIKDGLSAMSRYYLNNFQDGVRQDALDLISGRYTVGTHSPSQLQPIGSQPSFLPVASALLIGGVTVTSFTIHQAGRNTQQYLASALWAGVTAGVVAMIKANGRHLTSRPRLCHLI”, the protein production result is recorded as “failed”.

As for “MEIGLSLGLKSDEGGLKLSLSECGCHVEDITIELEGGASWFYQGMVNAFKDQIGSSVESTIAKKLTEGVSDLDSFLQSLPKEIPVDDNADLNVTFTSDPILRNSSITFEIDGLFTKGETNQVLKSFFKKSVSLVICPGNSKMLGISVDEAVFNSAAALYYNADFVQWVVDKIPEQSLLNTARWRFIIPQLYKKYPNQDMNLNISLSSPPLVKISEQYVGANVNADLVINVLDANQVIPVACISLMIRGSGALRVMGNNLGGSVSLEDFSMSLKWSNIGNLHLHLLQPIVWTVIQTVFVPYANDHLEKGFPLPIMHGFTLQNAEIICSESEITVCSDVAYLDSSQQPQWL”, the protein production result was “failed”.

With “MEIGRVVGNVWATRKDEKLNGQKFLIVKLLVSKDKEKEGLFVAADNAGAGIGDIVLITKGGAARQSIGNREVPIDAAIVGIVDSIDIEEDLEHHHHHH”, the protein production result is listed as “not failed”.

Consider “MEIGVSGASGQLGKAVLAELAARGAGHRVVGISRTPERVPAPAQGRLGDYDRAETLLQAYRGLDRLLLIPSADLGPGVRGRQFTAAIDAAVRAGVKHIVMVSTAGTRELAEPALGAAYWVGEQRLVKTAPRWTILRMNYYAESFAQQAPMFLGSGILPGLGENRVAFVSRDDVAAAAAGILLGEGHAGAIYNATGPVALSGAQRAALVAELSGKPLRFAVSDEAPLRQGLAQAGLPGGFVDAVIDLEKSFVAGAFDVVTGDVARLAGREPRALRTLLADSLRPAVADA”, for which the protein production result is “failed”.
